Measured values taken from US20240270834A1 (Hoffmann-La Roche, published 2024).

T1: VEGF (UniProt P15692-9 27-147, limits assumed)
T1 sequence (looked up): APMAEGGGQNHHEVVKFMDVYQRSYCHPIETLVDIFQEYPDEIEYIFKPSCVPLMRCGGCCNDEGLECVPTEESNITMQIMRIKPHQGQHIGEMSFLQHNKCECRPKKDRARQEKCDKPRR

T2: angiopoietin-2 (UniProt O15123 68-496, limits assumed)
T2 sequence (looked up): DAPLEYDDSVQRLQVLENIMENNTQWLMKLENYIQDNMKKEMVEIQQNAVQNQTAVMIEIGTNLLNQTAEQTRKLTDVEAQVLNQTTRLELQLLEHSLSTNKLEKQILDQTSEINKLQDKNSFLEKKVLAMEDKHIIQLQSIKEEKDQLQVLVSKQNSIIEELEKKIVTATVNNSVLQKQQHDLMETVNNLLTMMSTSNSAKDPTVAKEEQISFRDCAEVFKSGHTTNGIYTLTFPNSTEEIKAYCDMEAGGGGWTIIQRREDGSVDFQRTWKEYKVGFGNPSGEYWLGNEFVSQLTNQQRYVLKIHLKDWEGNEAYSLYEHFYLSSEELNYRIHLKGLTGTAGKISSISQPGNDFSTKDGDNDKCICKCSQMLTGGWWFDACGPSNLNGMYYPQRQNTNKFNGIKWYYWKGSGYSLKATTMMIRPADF

B1: Ophthabody variant VII (bispecific antibody)
chain 1: not shown
chain 2: EVQLVESGGGLVQPGGSLRLSCAASGYDFTHYGMNWVRQAPGKGLEWVGWINTYTGEPTYAADFKRRFTFSLDTSKSTAYLQMNCLRAEDTAVYYCAKYPYYYGTSHWYFDVWGQGTLVTVSSGGGPREPQVYTLPPCRDELTKNQVSLWCLVKGFYPSDIAVEWESNGQPENNYKTTPPVLDSDGSFFLYSKLTVDKSRWQQGNVFSCSVMHEALCNHYTQKSLSLSGGGDIQLTQSPSSLSASVGDRVTITCSASQDISNYLNWYQQKPGKAPKVLIYFTSSLHSGVPSRFSGSGSGTDFTLTISSLQPEDFATYYCQQYSTVPWTFGQGTKVEIKGS
B2: Ophthabody variant III (bispecific antibody)
chain 1: not shown
chain 2: EVQLVESGGGLVQPGGSLRLSCAASGYDFTHYGMNWVRQAPGKGLEWVGWINTYTGEPTYAADFKRRFTFSLDTSKSTAYLQMNSLRAEDTAVYYCAKYPYYYGTSHWYFDVWGQGTLVTVSSGGGGSPREPQVYTLPPCRDELTKNQVSLWCLVKGFYPSDIAVEWESNGQPENNYKTTPPVLDSDGSFFLYSKLTVDKSRWQQGNVFSCSVMHEALHNHYTQKSLSLSGGGGSDIQLTQSPSSLSASVGDRVTITCSASQDISNYLNWYQQKPGKAPKVLIYFTSSLHSGVPSRFSGSGSGTDFTLTISSLQPEDFATYYCQQYSTVPWTFGQGTKVEIKAS
B3: Ophthabody variant IV (bispecific antibody)
chain 1: not shown
chain 2: EVQLVESGGGLVQPGGSLRLSCAASGYDFTHYGMNWVRQAPGKGLEWVGWINTYTGEPTYAADFKRRFTFSLDTSKSTAYLQMNSLRAEDTAVYYCAKYPYYYGTSHWYFDVWGQGTLVTVSSGGGGSPREPQVYTLPPCRDELTKNQVSLWCLVKGFYPSDIAVEWESNGQPENNYKTTPPVLDSDGSFFLYSKLTVDKSRWQQGNVFSCSVMHEALHNHYTQKSLSLSGGGGSDIQLTQSPSSLSASVGDRVTITCSASQDISNYLNWYQQKPGKAPKVLIYFTSSLHSGVPSRFSGSGSGTDFTLTISSLQPEDFATYYCQQYSTVPWTFGQGTKVEIKGS
B4: Ophthabody variant II (bispecific antibody)
chain 1: not shown
chain 2: EVQLVESGGGLVQPGGSLRLSCAASGYDFTHYGMNWVRQAPGKGLEWVGWINTYTGEPTYAADFKRRFTFSLDTSKSTAYLQMNSLRAEDTAVYYCAKYPYYYGTSHWYFDVWGQGTLVTVSSGGGPREPQVYTLPPCRDELTKNQVSLWCLVKGFYPSDIAVEWESNGQPENNYKTTPPVLDSDGSFFLYSKLTVDKSRWQQGNVFSCSVMHEALHNHYTQKSLSLSGGGDIQLTQSPSSLSASVGDRVTITCSASQDISNYLNWYQQKPGKAPKVLIYFTSSLHSGVPSRFSGSGSGTDFTLTISSLQPEDFATYYCQQYSTVPWTFGQGTKVEIKGS
B5: Ophthabody variant I (bispecific antibody)
chain 1: not shown
chain 2: EVQLVESGGGLVQPGGSLRLSCAASGYDFTHYGMNWVRQAPGKGLEWVGWINTYTGEPTYAADFKRRFTFSLDTSKSTAYLQMNSLRAEDTAVYYCAKYPYYYGTSHWYFDVWGQGTLVTVSSGGGPREPQVYTLPPCRDELTKNQVSLWCLVKGFYPSDIAVEWESNGQPENNYKTTPPVLDSDGSFFLYSKLTVDKSRWQQGNVFSCSVMHEALHNHYTQKSLSLSGGGDIQLTQSPSSLSASVGDRVTITCSASQDISNYLNWYQQKPGKAPKVLIYFTSSLHSGVPSRFSGSGSGTDFTLTISSLQPEDFATYYCQQYSTVPWTFGQGTKVEIKAS
B6: Ophthabody variant VI (bispecific antibody)
chain 1: not shown
chain 2: EVQLVESGGGLVQPGGSLRLSCAASGYDFTHYGMNWVRQAPGKGLEWVGWINTYTGEPTYAADFKRRFTFSLDTSKSTAYLQMNSLRAEDTAVYYCAKYPYYYGTSHWYFDVWGQGTLVTVSSGPPSREPQVYTLPPCRDELTKNQVSLWCLVKGFYPSDIAVEWESNGQPENNYKTTPPVLDSDGSFFLYSKLTVDKSRWQQGNVFSCSVMHEALHNHYTQKSLSLSPPGDIQLTQSPSSLSASVGDRVTITCSASQDISNYLNWYQQKPGKAPKVLIYFTSSLHSGVPSRFSGSGSGTDFTLTISSLQPEDFATYYCQQYSTVPWTFGQGTKVEIKGS
B7: Ophthabody variant V (bispecific antibody)
chain 1: not shown
chain 2: EVQLVESGGGLVQPGGSLRLSCAASGYDFTHYGMNWVRQAPGKGLEWVGWINTYTGEPTYAADFKRRFTFSLDTSKSTAYLQMNSLRAEDTAVYYCAKYPYYYGTSHWYFDVWGQGTLVTVSSPGGPREPQVYTLPPCRDELTKNQVSLWCLVKGFYPSDIAVEWESNGQPENNYKTTPPVLDSDGSFFLYSKLTVDKSRWQQGNVFSCSVMHEALHNHYTQKSLSLSGPGDIQLTQSPSSLSASVGDRVTITCSASQDISNYLNWYQQKPGKAPKVLIYFTSSLHSGVPSRFSGSGSGTDFTLTISSLQPEDFATYYCQQYSTVPWTFGQGTKVEIKGS

target: T1, VEGF; experiment: cell-based or functional assay

Binder	EC50, luciferase assay (reporter gene assay) [nM]
B1	2.1

target: T2, angiopoietin-2; experiment: cell-based or functional assay

Binder	EC50, kinase receptor activation assay [nM]
B2	19
B3	13
B4	18
B5	21
B6	18
B7	14
B1	23
